Data taken from article PMC12371506 (ACS Bio & Med Chem Au, 2025).
*: point of attachment. AMC = Cc1cc(=O)oc2cc(N*)ccc12; CH2Cl = ClC*

T1: caspase-1 (Homo sapiens, UniProt P29466)
T1 sequence (P29466 120-297 limits assumed): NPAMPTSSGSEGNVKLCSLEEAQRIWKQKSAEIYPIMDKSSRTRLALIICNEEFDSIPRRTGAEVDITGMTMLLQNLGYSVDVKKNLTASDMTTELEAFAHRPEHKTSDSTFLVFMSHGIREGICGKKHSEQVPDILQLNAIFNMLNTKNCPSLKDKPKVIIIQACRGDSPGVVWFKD
T1 sequence (P29466 317-404 limits assumed): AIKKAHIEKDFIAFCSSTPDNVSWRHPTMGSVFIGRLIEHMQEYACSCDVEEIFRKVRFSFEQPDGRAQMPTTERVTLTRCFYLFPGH

T2: caspase-3 (Homo sapiens, UniProt P42574)
T2 sequence (P42574 29-175 limits assumed): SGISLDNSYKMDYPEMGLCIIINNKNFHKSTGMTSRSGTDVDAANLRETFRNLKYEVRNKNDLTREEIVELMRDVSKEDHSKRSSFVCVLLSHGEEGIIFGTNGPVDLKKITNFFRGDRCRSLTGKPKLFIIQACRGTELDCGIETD
T2 sequence (P42574 176-277 limits assumed): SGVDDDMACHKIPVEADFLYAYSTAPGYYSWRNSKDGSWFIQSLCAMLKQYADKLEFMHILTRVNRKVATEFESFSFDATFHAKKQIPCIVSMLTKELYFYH

T3: caspase-4 (Homo sapiens, UniProt P49662)
T3 sequence (P49662 81-270 limits assumed): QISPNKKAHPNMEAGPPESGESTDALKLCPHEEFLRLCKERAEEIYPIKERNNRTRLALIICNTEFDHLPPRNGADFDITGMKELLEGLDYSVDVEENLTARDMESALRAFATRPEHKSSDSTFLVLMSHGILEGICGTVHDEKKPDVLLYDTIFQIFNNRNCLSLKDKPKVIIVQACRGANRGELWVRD
T3 sequence (P49662 290-377 limits assumed): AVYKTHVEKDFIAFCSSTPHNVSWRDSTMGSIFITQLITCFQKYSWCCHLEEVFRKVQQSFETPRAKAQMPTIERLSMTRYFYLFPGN

T4: caspase-6 (Homo sapiens, UniProt P55212)
T4 sequence (P55212 24-179 limits assumed): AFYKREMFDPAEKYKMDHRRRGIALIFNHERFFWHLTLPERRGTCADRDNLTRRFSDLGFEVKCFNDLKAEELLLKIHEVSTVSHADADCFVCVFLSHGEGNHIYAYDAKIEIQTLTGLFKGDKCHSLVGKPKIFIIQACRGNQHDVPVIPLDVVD
T4 sequence (P55212 194-293 limits assumed): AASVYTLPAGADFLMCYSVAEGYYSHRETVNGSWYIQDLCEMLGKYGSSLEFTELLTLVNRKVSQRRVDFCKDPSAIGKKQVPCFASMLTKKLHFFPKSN

T5: caspase-7 (Homo sapiens, UniProt P55210)
T5 sequence (P55210 24-198 limits assumed): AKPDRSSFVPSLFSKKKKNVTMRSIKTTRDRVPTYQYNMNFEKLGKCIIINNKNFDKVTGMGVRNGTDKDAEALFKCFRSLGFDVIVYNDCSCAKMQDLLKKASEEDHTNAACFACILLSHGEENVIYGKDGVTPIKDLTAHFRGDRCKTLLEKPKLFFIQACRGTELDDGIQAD
T5 sequence (P55210 207-303 limits assumed): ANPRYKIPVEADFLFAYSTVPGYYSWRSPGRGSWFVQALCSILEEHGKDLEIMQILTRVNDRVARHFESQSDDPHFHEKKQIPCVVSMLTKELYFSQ

T6: caspase-10 (Homo sapiens, UniProt Q92851)
T6 sequence (Q92851 220-415 limits assumed): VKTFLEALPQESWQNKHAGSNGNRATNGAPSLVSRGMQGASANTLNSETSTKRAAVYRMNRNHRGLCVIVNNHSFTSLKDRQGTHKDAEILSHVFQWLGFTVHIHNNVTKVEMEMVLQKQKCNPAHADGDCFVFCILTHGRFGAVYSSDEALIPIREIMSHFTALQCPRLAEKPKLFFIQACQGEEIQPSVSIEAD
T6 sequence (Q92851 416-521 limits assumed): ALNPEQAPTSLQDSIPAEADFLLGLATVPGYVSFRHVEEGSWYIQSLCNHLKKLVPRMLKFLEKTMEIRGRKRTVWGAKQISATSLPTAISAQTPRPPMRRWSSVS

T7: caspase-9 (full-length) (Homo sapiens, UniProt P55211)
T7 sequence (P55211 1-315 limits assumed): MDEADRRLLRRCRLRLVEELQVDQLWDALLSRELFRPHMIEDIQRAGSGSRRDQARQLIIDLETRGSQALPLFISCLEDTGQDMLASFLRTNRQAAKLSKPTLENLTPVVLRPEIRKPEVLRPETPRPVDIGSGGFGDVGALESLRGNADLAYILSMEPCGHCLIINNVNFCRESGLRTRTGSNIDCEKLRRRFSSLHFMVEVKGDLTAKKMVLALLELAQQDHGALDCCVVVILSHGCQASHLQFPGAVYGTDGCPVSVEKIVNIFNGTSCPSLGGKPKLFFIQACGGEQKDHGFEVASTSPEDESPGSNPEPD
T7 sequence (P55211 331-416 limits assumed): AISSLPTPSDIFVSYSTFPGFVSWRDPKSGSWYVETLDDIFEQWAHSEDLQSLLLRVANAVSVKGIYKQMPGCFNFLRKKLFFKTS

T8: caspase-5 (Homo sapiens, UniProt P51878)
T8 sequence (P51878 137-327 limits assumed): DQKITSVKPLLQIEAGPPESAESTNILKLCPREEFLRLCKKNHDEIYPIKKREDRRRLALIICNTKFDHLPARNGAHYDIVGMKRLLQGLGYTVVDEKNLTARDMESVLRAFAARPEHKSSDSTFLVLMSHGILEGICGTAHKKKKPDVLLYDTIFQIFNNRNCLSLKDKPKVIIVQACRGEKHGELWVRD
T8 sequence (P51878 347-434 limits assumed): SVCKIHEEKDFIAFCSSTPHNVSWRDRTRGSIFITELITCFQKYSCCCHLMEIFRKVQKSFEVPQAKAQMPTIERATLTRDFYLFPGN

T9: caspase-11 (Mus musculus, UniProt P70343)
T9 sequence (P70343 81-266 limits assumed): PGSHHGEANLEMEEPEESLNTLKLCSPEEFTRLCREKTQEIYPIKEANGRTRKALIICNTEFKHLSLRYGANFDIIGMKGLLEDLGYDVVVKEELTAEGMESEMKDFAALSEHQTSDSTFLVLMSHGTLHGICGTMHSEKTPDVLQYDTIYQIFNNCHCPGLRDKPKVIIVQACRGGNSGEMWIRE
T9 sequence (P70343 286-373 limits assumed): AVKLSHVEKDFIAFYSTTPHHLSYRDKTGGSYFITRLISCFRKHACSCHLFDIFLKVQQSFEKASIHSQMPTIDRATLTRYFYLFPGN


Assays:
caspase-1 = molecular target: T1, caspase-1; assay: In vitro substrate kinetics, caspase-1; type: biochemical; details: caspase-1, 0.25 activity units/μL
caspase-3 = molecular target: T2, caspase-3; assay: In vitro substrate kinetics, caspase-3; type: biochemical; details: caspase-3, 0.25 activity units/μL
caspase-4 = molecular target: T3, caspase-4; assay: In vitro substrate kinetics, caspase-4; type: biochemical; details: caspase-4, 0.25 activity units/μL
caspase-6 = molecular target: T4, caspase-6; assay: In vitro substrate kinetics, caspase-6; type: biochemical; details: caspase-6, 0.25 activity units/μL
caspase-7 = molecular target: T5, caspase-7; assay: In vitro substrate kinetics, caspase-7; type: biochemical; details: caspase-7, 0.25 activity units/μL
caspase-8 = caspase-8 (Homo sapiens, UniProt Q14790); assay: In vitro substrate kinetics, caspase-8; type: biochemical; details: for K M / Relative k cat/K M / V max: caspase-8, 0.25 activity units/μL
Sequence of caspase-8 (Q14790 217-374 limits assumed): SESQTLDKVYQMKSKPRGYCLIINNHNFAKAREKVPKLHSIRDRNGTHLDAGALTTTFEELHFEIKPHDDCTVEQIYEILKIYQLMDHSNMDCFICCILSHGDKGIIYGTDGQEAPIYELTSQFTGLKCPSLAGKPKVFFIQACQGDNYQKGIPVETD
Sequence of caspase-8 (Q14790 385-479 limits assumed): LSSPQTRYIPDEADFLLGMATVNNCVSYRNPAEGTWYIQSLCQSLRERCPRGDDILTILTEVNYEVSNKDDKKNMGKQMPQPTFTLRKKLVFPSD

caspase-10 = molecular target: T6, caspase-10; assay: In vitro substrate kinetics, caspase-10; type: biochemical; details: for K M / Relative k cat/K M / V max: caspase-10, 0.25 activity units/μL
caspase-9 (full-length) = molecular target: T7, caspase-9 (full-length); assay: In vitro substrate kinetics, caspase-9; details: caspase-9, 1 activity unit/μL, different preparation
caspase-5 = molecular target: T8, caspase-5; assay: In vitro substrate kinetics, caspase-5; type: biochemical
caspase-11 = molecular target: T9, caspase-11; assay: In vitro substrate kinetics, caspase-11; type: biochemical
[1] = molecular target: Caspase-9 (full-length) (human), (recombinant) (human) (UniProt P55211)
[2] = caspase-5, 0.25 activity units/μL
[3] = mouse caspase-11, 0.25 activity units/μL

| Molecule | K M (caspase-1) [µM] | Relative k cat/K M (caspase-1) | V max (caspase-1) [RFU/min] | Relative k cat/K M (caspase-3) | K M (caspase-4) [µM] | Relative k cat/K M (caspase-4) | V max (caspase-4) [RFU/min] | Relative k cat/K M (caspase-6) | Relative k cat/K M (caspase-7) | K M (caspase-8) [µM] | Relative k cat/K M (caspase-8) | V max (caspase-8) [RFU/min] | K M (caspase-10) [µM] | Relative k cat/K M (caspase-10) | V max (caspase-10) [RFU/min] | Relative k cat/K M (caspase-9 (full-length)) | other results |
| --- | --- | --- | --- | --- | --- | --- | --- | --- | --- | --- | --- | --- | --- | --- | --- | --- | --- |
| Ac-DEVD-AMC [reference compound] | 47.5 ± 30.8 | 1.41 ± 0.43 | 44.68 ± 15.51 | 482 ± 76.5 | 702 ± 76.3 | 1.27 ± 0.18 | 862.73 ± 31.55 | 13.3 ± 2.24 | 561 ± 81.2 | 0.75 ± 0.12 | 310 ± 60.4 | 218.27 ± 2.74 | 70.3 ± 14.6 | 7.20 ± 1.02 | 476.26 ± 38.71 | did not cleave | K M (caspase-3): 2.07 ± 0.36 µM; V max (caspase-3): 940.88 ± 31.57 RFU/min; K M (caspase-6): 35.3 ± 5.12 µM; V max (caspase-6): 455.67 ± 64.18 RFU/min; K M (caspase-7): 2.36 ± 0.36 µM; V max (caspase-7): 1266.91 ± 38.79 RFU/min |
| N-acetyl-Leu-Glu-Ser-Asp-aminomethylcoumarin (Ac-LESD-{AMC}; SMILES CC(=O)N[C@@H](CC(C)C)C(=O)N[C@@H](CCC(=O)O)C(=O)N[C@@H](CO)C(=O)N[C@@H](CC(=O)O)C(=O)Nc1ccc2c(C)cc(=O)oc2c1) [Ac-LESD-AMC] | 93.9 ± 6.26 | 5.01 ± 0.41 | 465.55 ± 10.25 | did not detect processing | 1867 ± 388 | 1.44 ± 0.18 | 2546.06 ± 156.63 | did not detect processing | did not detect processing | 9.98 ± 0.37 | 59.2 ± 3.26 | 590.08 ± 30.37 | 87.9 ± 5.38 | 10.4 ± 1.30 | 898.63 ± 57.69 | 0.15 | catalytic efficiency within x-fold of preferred substrate Ac-WEHD-AMC (caspase-5; caspase-5): ≤ 5 fold; K M (caspase-5; [2]): 154 ± 13.5 µM; Relative k cat/K M (caspase-5; [2]): 4.65 ± 0.43; V max (caspase-5; [2]): 703.19 ± 24.07 RFU/min; catalytic efficiency within x-fold of preferred substrate Ac-LEHD-AMC (caspase-8; caspase-8): ≤ 3 fold; catalytic efficiency within x-fold of preferred substrate Ac-LEHD-AMC (caspase-10; caspase-10): ≤ 3 fold; K M (caspase-11; [3]): 503 ± 58.4 µM; Relative k cat/K M (caspase-11; [3]): 0.42 ± 0.02; V max (caspase-11; [3]): 211.01 ± 15.01 RFU/min; fold slower cleavage by caspase-11 than by caspase-8 (caspase-11; relative k cat/K M): ~100 fold; K M (caspase-9 (full-length)): 1513.83 ± 441.20 µM; V max (caspase-9 (full-length)): 208.50 ± 45.00 RFU/min; Relative k cat/K M (caspase-9 (full-length); listed as LESD-AMC): 0.15 ± 0.02 |
| Ac-LESD-CH2Cl (SMILES CC(=O)N[C@@H](CC(C)C)C(=O)N[C@@H](CCC(=O)O)C(=O)N[C@@H](CO)C(=O)N[C@@H](CC(=O)O)C(=O)CCl) [N-acetyl-Leu-Glu-Ser-Asp-chloromethylketone] |  |  |  |  |  |  |  |  |  |  |  |  |  |  |  |  | IC50 of inhibition of caspase activity (rate of cleavage of 200 μM Ac-LEHD-AMC) [1]: 7.45 µM |
